± gives the uncertainty stated by the source.
Test: protein stability index of a GFP-peptide fusion (yeast GPS) (PSI 1-4); higher = more stable; sorted into four equal gates, so the index is relative within each strain
How it was run: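 The protein stability index combines read frequencies across sorting gates, each weighted by its gate number and then summed. To obtain those frequencies, a pooled yeast library of GFP fusions to tiled 17-residue yeast protein peptides, on a plasmid also expressing Cherry, was grown to mid-log phase in leucine-free medium. The cells were sorted into four equal gates by GFP/Cherry ratio before plasmid amplification by PCR and Illumina sequencing.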

Sequence	protein stability index (pdr5∆)	protein stability index (san1∆)	protein stability index (ubr1∆)	protein stability index (doa10∆)
DNKDKEGNAGGDQKTSE [YOR098C/NUP1]	3.6 ± 0.17	3.19 ± 0.17	3.35 ± 0.074	
DNNSKAEASFTFGTKHA [YLR335W/NUP2]	3.09 ± 0.076	2.93 ± 0.049	3.02 ± 0.053	3.21 ± 0.082
DNNSSLNVSNTKENGDF [PRP8]	2.84 ± 0.084	2.9 ± 0.058	3.39 ± 0.074	3.17 ± 0.083
DNSNVMTVKLESITYQK [RGR1]	2.43 ± 0.1	3.1 ± 0.12	2.93 ± 0.1	2.88 ± 0.096
DPFFAQSEDLSHAVEFF [YML103C/NUP188]	3.17 ± 0.057	3.31 ± 0.045	3.14 ± 0.042	3.23 ± 0.056
DPKRLFEGNALIRRLVR [RPS9A]	3.52 ± 0.28			
DPNEVEIKKLLATNSLV [DIS3]	1.82 ± 0.048	2.35 ± 0.057	2.29 ± 0.046	2.19 ± 0.049
DPNEVKYLYLRAVGGEV [RPL12A]	1.89 ± 0.12	1.98 ± 0.18	1.53 ± 0.039	1.77 ± 0.073
DPNLELDQVGVPKSIAK [RPO21]	3.18 ± 0.14	2.44 ± 0.25	3.11 ± 0.16	3.48 ± 0.23
DPNLSFESSSSLPFLLR [SSN2]	3.19 ± 0.13	2.94 ± 0.1	2.82 ± 0.13	3.07 ± 0.16
DPQDVFNYNIFMHDPSV [SIR2]	2.02 ± 0.074	1.35 ± 0.12	2.69 ± 0.089	2.66 ± 0.08
DPRHIQLLGDVMTYKGE [RPO31]	3.17 ± 0.055	2.79 ± 0.063	3.06 ± 0.048	2.91 ± 0.07
DQNEFLLERTREIHNEA [FAS2]	3.13 ± 0.08	2.99 ± 0.063	3.08 ± 0.067	3.12 ± 0.092
DQRDELLEQKKSIINSQ [ITC1]	3.1 ± 0.075	3.11 ± 0.062	3.19 ± 0.068	3.08 ± 0.085
DQSIASGNTNGAGSAFG [YOR098C/NUP1]	2.49 ± 0.06	2.44 ± 0.079	2.49 ± 0.078	3.26 ± 0.072
DQVLVKGGEQISQLYSD [YJL041W/NSP1]	3.16 ± 0.082	3.2 ± 0.061	3.16 ± 0.091	3.18 ± 0.091
DRELNEVINQMERLDGD [SMC3]	3.29 ± 0.083	3.2 ± 0.08	3.1 ± 0.045	3.13 ± 0.086
DRLILDLKLPPMDAYLK [SNU114]	3.34 ± 0.11	3.01 ± 0.063	3.17 ± 0.063	3.5 ± 0.14
DRLSLQDRQQLLPLVVS [ECM29]	2.06 ± 0.044	1.64 ± 0.08	1.84 ± 0.037	2 ± 0.051
DRNLTEFDSTDTSLCIN [RRI1]	3 ± 0.12	2.59 ± 0.13	2.79 ± 0.067	2.98 ± 0.12
DRREKAERTMSKKETKL [SMC2]	3.36 ± 0.092	3.19 ± 0.12	3.39 ± 0.099	3.31 ± 0.13
DSFSGAKIYPGRGTLFV [RPL24A]	3.08 ± 0.067	2.78 ± 0.06	2.68 ± 0.052	3.13 ± 0.065
DSIYTKPVKVALIFIFF [YJL039C/NUP192]	1.68 ± 0.033	1.5 ± 0.058	1.68 ± 0.023	1.69 ± 0.039
DSKGSLYSVKFAPAHLG [YGL100W/SEH1]	3.05 ± 0.13	2.59 ± 0.1	2.81 ± 0.062	2.66 ± 0.11
DSPFSLICQNNLNAFVD [SRP72]	3 ± 0.055	2.85 ± 0.05	2.92 ± 0.046	2.98 ± 0.069
DSSAHFKGALTIKILPE [YMR129W/POM152]	2.62 ± 0.064	2.37 ± 0.058	2.49 ± 0.042	2.67 ± 0.076

Sequence	protein stability index (pdr5∆)	protein stability index (san1∆)	protein stability index (ubr1∆)	protein stability index (doa10∆)
DSVATVIEVIETKWDDA [YJR042W/NUP85]	2.64 ± 0.28	2.16 ± 0.17	2.1 ± 0.27	2.32 ± 0.24
DSVEFIFQAKRNSNPEN [RPN10]	2.73 ± 0.089	3.2 ± 0.12	2.69 ± 0.083	2.75 ± 0.087
DSVLQLASFEKTTDHLF [RPO31]	2.64 ± 0.04	2.83 ± 0.06	2.74 ± 0.041	2.63 ± 0.054
DTEMKMKSLLTELSNKE [YIL149C/MLP2]	3.44 ± 0.058	3.21 ± 0.045	3.35 ± 0.049	3.31 ± 0.065
DTFELIKTFLVDLTSSN [YDL116W/NUP84]	3.19 ± 0.073	2.55 ± 0.08	3.1 ± 0.046	2.69 ± 0.07
DTGTLDTKSVVGLVMFS [RPN2]	2.66 ± 0.084	2.91 ± 0.075	2.42 ± 0.069	2.67 ± 0.083
DTKKVKESPANDQASNE [YIL149C/MLP2]	3.29 ± 0.1	3.12 ± 0.2	3.15 ± 0.19	3.17 ± 0.13
DTSKALLNVSVNITKFS [SKI6]	2.57 ± 0.068	2.72 ± 0.073	2.42 ± 0.072	2.27 ± 0.08
DTTVNDCLDKLLNDECT [SNF2]	3.46 ± 0.1	3.59 ± 0.075	3.73 ± 0.094	3.43 ± 0.16
DVAIENNTLSRYADAGN [RRP43]	3.32 ± 0.048	3.35 ± 0.035	3.44 ± 0.041	3.36 ± 0.045
DVAYLLKSESATSQYLK [YGL172W/NUP49]	3.21 ± 0.094	2.94 ± 0.1	3.03 ± 0.11	2.25 ± 0.14
DVFDTLATYCPRVQGFY [GRR1]	2.26 ± 0.054	2.36 ± 0.078	2.6 ± 0.055	2.65 ± 0.075
DVHLLESKVYHKLRNLA [RPN6]	2.33 ± 0.086	2.17 ± 0.14	2.13 ± 0.11	1.95 ± 0.069
DVILDYQTKKFYDYIKE [REC8]	2.58 ± 0.052	2.55 ± 0.071	2.92 ± 0.051	2.4 ± 0.06
DVKLLHSQFMKDLKDDS [YJL039C/NUP192]	2.85 ± 0.091	2.98 ± 0.077	2.72 ± 0.055	2.72 ± 0.075
DVKVSISHDDLQAVAVA [FAS2]	2.6 ± 0.055	1.61 ± 0.065	2.22 ± 0.049	2.66 ± 0.076
DVNALKFNNTQRESQIG [SNF12]	2.75 ± 0.067	2.68 ± 0.077	3.12 ± 0.063	2.31 ± 0.092
DVNIVNRRLVYSRILKS [YCG1]	1.16 ± 0.079	1.38 ± 0.17	1.21 ± 0.059	1.36 ± 0.1
DVSVKMGNTKVHCRISC [RRP45]	2.28 ± 0.092	2.17 ± 0.061	2.09 ± 0.074	2.21 ± 0.14
DVVAHRQLAGAIGYEPL [DIS3]	2.43 ± 0.075	1.88 ± 0.15	2.19 ± 0.11	2.65 ± 0.074
DVYASKVRLNASEREEL [PRP8]	2.22 ± 0.061	2.39 ± 0.072	1.78 ± 0.046	1.93 ± 0.062
DWGQALRLLLLLIEFPY [YJR042W/NUP85]	1.29 ± 0.049	1.39 ± 0.067	1.21 ± 0.034	1.44 ± 0.05
DWQKEDGIFSSKTDNIE [YMR153W/NUP53]		3.22 ± 0.15	2.86 ± 0.2	
DYDVSKKASEISVSSRS [SRP14]		3.2 ± 0.15	2.98 ± 0.21	3.52 ± 0.15
DYINELSNSNRFELHGD [REC8]	3.08 ± 0.11	3 ± 0.092	3.03 ± 0.13	2.78 ± 0.12
DYSINSRYEPKVFDCGD [PRE7]	2.59 ± 0.053	2.9 ± 0.068	2.59 ± 0.063	2.73 ± 0.076
